Consider twelve molecules from patent US20240101645A1 (HENRY M JACKSON FOUNDATION FOR THE ADVANCEMENT OF MILITARY …, published 2024).

Assay [1] addresses T1, HCoV-NL63 spike antigens (bead panel) (HCoV-NL63, UniProt Q6Q1S2 19-1296).
T1 sequence: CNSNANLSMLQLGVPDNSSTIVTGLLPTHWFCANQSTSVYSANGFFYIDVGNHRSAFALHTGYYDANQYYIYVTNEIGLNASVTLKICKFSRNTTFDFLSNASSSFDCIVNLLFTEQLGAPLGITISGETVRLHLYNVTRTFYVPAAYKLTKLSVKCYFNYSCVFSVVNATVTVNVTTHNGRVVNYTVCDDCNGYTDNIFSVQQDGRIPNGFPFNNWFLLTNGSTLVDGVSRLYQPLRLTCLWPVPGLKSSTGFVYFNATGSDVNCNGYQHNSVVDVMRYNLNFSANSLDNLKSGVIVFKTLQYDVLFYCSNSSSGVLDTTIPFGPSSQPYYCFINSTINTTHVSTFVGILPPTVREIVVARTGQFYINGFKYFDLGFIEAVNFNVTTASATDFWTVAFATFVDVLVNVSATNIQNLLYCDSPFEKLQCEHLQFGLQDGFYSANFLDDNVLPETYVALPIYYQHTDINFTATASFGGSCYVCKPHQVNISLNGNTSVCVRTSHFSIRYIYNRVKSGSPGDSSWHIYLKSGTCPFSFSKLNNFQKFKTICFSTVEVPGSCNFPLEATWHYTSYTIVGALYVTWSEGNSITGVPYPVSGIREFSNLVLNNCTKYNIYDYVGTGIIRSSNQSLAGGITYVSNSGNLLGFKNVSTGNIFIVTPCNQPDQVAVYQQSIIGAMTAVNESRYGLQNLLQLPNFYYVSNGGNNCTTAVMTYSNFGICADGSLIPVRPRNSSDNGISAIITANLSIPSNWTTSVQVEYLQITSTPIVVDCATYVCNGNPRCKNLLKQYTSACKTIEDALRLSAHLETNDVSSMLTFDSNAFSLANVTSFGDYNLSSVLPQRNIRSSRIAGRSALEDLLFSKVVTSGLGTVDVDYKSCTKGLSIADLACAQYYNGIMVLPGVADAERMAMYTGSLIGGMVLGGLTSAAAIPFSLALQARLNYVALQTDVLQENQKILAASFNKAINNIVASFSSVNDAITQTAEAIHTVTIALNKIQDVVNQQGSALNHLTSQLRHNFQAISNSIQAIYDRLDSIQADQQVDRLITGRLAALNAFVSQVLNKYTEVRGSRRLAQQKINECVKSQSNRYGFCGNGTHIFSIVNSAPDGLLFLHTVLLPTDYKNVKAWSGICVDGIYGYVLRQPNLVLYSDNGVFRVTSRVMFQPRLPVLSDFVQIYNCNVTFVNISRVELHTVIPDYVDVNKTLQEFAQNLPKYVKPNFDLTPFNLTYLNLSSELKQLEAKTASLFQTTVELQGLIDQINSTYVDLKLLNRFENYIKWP
Kind of assay: multiplex bead assay.

Assay [2] has as its target T2, HCoV-HKU1 spike antigens (bead panel) (HCoV-HKU1, UniProt Q5MQD0 13-1300).
T2 sequence: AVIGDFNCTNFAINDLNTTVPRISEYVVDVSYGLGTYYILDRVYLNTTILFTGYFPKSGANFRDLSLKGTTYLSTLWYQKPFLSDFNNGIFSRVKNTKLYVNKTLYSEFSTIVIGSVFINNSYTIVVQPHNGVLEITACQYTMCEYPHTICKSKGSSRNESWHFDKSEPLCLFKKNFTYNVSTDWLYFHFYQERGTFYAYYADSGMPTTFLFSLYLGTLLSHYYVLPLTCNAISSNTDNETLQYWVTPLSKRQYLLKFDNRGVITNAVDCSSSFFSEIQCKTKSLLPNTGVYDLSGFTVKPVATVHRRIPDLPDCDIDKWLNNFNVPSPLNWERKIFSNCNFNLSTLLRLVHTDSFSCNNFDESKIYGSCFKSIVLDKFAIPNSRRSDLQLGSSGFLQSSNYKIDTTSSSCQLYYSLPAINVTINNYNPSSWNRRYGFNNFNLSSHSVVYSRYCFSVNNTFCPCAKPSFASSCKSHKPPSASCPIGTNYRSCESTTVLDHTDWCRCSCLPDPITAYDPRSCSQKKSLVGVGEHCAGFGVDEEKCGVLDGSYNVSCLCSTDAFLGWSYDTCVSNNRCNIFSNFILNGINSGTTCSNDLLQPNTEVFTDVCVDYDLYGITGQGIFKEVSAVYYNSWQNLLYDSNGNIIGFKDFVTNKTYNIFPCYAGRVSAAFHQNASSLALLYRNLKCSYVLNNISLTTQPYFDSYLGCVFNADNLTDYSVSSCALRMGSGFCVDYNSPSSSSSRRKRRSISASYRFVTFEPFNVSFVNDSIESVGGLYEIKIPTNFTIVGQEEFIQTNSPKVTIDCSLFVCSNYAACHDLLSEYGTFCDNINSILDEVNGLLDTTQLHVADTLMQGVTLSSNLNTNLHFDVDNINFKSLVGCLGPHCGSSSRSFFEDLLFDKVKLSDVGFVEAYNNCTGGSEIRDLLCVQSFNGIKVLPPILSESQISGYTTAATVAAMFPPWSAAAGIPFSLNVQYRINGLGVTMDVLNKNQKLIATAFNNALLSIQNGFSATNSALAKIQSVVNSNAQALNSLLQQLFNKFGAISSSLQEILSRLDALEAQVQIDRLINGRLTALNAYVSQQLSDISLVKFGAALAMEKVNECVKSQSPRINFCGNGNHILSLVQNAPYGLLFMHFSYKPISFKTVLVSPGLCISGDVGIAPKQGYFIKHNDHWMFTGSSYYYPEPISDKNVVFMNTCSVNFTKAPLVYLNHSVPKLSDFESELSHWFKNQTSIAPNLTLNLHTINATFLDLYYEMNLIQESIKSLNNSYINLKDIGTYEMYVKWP
The assay is described as follows: multiplex bead assay.

B1: COV_1118 (antibody, V domains shown)
VH: EVQLVESGGGLVKPGGSLRLSCAASGFSFSNYNMNWVRQAPGKGLEWVSYISSSSSYIYYADSVKGRFTISRDNAKNSLYLQMNSLRGEDTAVYSCAREASGAYYFDRSGYFDYWGQGTLVTVSP
VL: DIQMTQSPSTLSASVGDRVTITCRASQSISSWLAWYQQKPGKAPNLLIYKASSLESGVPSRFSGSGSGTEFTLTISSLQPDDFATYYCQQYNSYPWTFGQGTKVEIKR
notes: human IgG1
Turning to B1, the binding result in assay [1] and in assay [2] was “no binding” each time.

B2: COV_1136 (antibody, V domains shown)
VH: EVQLVESGGGLVKPGGSLRLSCAASGFTFSDCNMNWVRQAPGKGLEWVSSISSRSSYIYYADSVKGRFTISRDNAKNSLYLQMNSLRAEDTAVYSCAREASGAYYFDRSGYFDYWGQGTLVTVSP
VL: DIQMTQSPSTLSASVGDRVTITCRASQSISSWLAWYQQKPGKAPNLLIYKASSLESGVPSRFSGSGSGTEFTLTISSLQPDDFATYYCQQYNTYPWTFGQGTKVEIKR
notes: human IgG1
Turning to B2, the binding result in assay [1] and in assay [2] was “no binding” throughout.

B3: COV_1154 (antibody, V domains shown)
VH: EVQLVESGGGLVKPGGSLRLSCAASGFRFSDYNMNWVRQAPGKGLEWVSYISSSSSYIYYADSVKGRFTISRDNAKNSLYLQMNSLRGEDTAVYSCAREASGAYYFDRSGYFDYWGQGTLVTVSP
VL: DIQMTQSPSTLSASVGDRVTITCRASQSISSWLAWYQQKPGKAPNLLIYKASSLESGVPSRFSGSGSGTEFTLTISSLQPYDFATYYCQQYNSYPWAFGQGTKVEMKR
notes: human IgG1
Turning to B3, the binding result in assay [1] and in assay [2] was “no binding” throughout.

B4: COV_1184 (antibody, V domains shown)
VH: QVQLQQWGAGLLKPSETLSLTCAVYGGSFSGYYWSWIRQPPGKGLEWIGEINHSGNTTYNPSLKSRVTISVDTSKNQFSLKLSSVTAADTAVYYCARGLVITYYYDSSGKPFDPWGQGTLVTVSS
VL: not shown
notes: human IgG1
Turning to B4, the binding result in assay [1] and in assay [2] was “no binding” each time.

B5: COV_3129 (antibody, V domains shown)
VH: QVQLQQWGAGLLKPSDTLSLTCAANGGGSFSGYYLGYIRQSPGKGLEWIGEINHNGGTNYNPSLKSRVTISGDTSKNQFSLKLSSVTAADTAIYYCARSRDSSLGDAVWYEYWGQGTLITVSS
VL: EIVLTQSPATLSLSPGERATLSCRASQSVDIYLAWYQQRPGQAPRLLISDASKRATGVPARFSGSGSGTDFTLTINSLEPEDFAIYYCQQRRDWPINFGQGTRLEIKR
notes: human IgG1
In the case of B5, the binding result in assay [1] and in assay [2] was “no binding” in each case.

B6: COV_1145 (antibody, V domains shown)
VH: QVQLVESGGGVVQPGRSLRLSCAASGFTFSSYGMHWVRQAPGKGLEWVAVIWYDGSNKYYADSVKGRFTISRDNSKNTLYLQMNSLRVEDTAVYYCAREGQLGATGLDCWGQGTLVSVSS
VL: SYELTQPPSVSVSPGQTARITCSGDALPKKYAYWYQQKSGQAPVLVIYEDSKRPSGIPERFSGSSSGTMATLTISGAQVEDEADYYCYSTDNSGNHWVFGGGTKLTVLG
notes: human IgG1
In the case of B6, the binding result in assay [1] and in assay [2] was “no binding” throughout.

B7: COV_2215 (antibody, V domains shown)
VH: EVQLVESGGGLVKPGGSLRLSCAASGFTFSHAWMSWVRQAPGKGLEWVGRIKSKTDGGTADYAAPVKGRFTISRDDSKNTLYLQMNSLKTEDTAVYYCATIRYYYDSSAYLNDAFDIWGQGTMVTVSS
VL: SYELTQPPSVSVSPGQTARITCSGDALPKKYAYWYQQKSGQAPVLVIYEDSKRPSGIPERFSGSSSGTMATLTISGAQVEDEADYYCYSTDSSGNHRVFAGGTKLTVLG
notes: human IgG1
Consider B7, for which the binding result in assay [1] and in assay [2] was “no binding” each time.

B8: COV_2169 (antibody, V domains shown)
VH: EVQLVESGGGVVQPGRSLRLSCAASGFTFSRYAMHWVRQAPGKGLEWVAVISYEGSNKYYADSVKGRFTISRNNSNNTLSLQMNSLRPDDTAVYYCVRSGGHYFDAFDLWGQGTMVTVSS
VL: EIVLTQSPGTLSLSPGERATLSCRASQSVSRNYVAWYQQKPGQAPRLLIYGASSRATGIPDRFSGSGSGTDFTLTISRLEPEDFALYYCQQYGSSYTFGQGTKLEIKR
notes: human IgG1
In the case of B8, the binding result in assay [1] and in assay [2] was “no binding” in each case.

B9: COV_2205 (antibody, V domains shown)
VH: EVQLVESGGGLVKPGGSLRLSCAASGFTFSDYYMIWIRQAPGEGLEWVSYISSRSSYTNYADSVKGRFTISRDNARNSLYLQMNSLRAEDTAVYYCARGQHDLLTGYYSWAYFDYWGQGTLVTVSS
VL: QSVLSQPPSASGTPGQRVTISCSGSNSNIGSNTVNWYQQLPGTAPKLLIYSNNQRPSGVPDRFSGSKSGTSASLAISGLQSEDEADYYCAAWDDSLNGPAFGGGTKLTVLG
notes: human IgG1
As to B9, the binding result in assay [1] and in assay [2] was “no binding” throughout.

B10: COV_1177 (antibody, V domains shown)
VH: QVQLVESGGGVVQPGRSLRLSCAASGFTFSSYGMHWVRQAPGKGLEWVAVIWYDGSNKYYADSVKGRFTISRDNSKNTLYLQMNSLRAEDTAVYYCARDPLGAVAGYFDYWGQGTLVTVSS
VL: SYVLTQPPSVSVAPGQTARITCGGNNIGSKSVHWYQQKPGQAPVLVVYDDSDRPSGIPERFSGSNSGNTATLTISRVEAGDEADYYCQVWDSSSDHHWVFGGGTKLTVLG
notes: human IgG1
As to B10, the binding result in assay [1] and in assay [2] was “no binding” in each case.

B11: COV_2032 (antibody, V domains shown)
VH: EVQLVESGGGLVQPGGSLRLSCAASGFTFTTYWMHWVRQAPGKGLVWVSRIKTDGSSTNYADSVKGRFTISRDNAKNMLYLQMNSLRAEDTAVYYCAREGPVSIVYFDYWGQGTLVTVSS
VL: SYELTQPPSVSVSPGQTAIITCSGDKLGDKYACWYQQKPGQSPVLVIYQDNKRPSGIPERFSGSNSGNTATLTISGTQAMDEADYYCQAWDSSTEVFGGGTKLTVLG
notes: human IgG1
Regarding B11, the binding result in assay [1] and in assay [2] was “no binding” each time.

B12: COV_3069 (antibody, V domains shown)
VH: EVQLVESGGGLVKPGGSLRLSCAASGFTFGSYTMNWVRQAPGKGLEWVSSIDTTSSSIYYADSLKGRFAISRDSAKNSLYLQMNRLRAEDTAVYYCARGNGHSYDSSGYHYGMYFDYWGQGTLVTVSS
VL: DIQMTQSPSTLSASVGDRVTITCRASQSISRWLAWYQQKPGKAPKLLIYEVSSLENGVPSRFSGSRSGTEFTLTISSLQPDDFAIYYCQQYNTYSRTFGQGTKVEIKR
notes: human IgG1
B12: the binding result in assay [1] and in assay [2] was “no binding” in each case.
